Reference: US5690954A, “Enhanced uptake drug delivery system having microspheres containing an active drug and a bioavailability improving material” (priority 1987, dated 1997)

How the values were obtained:
[1] = without enhancer; cited from earlier work
[2] = nasal, sodium deoxycholate; cited from earlier work
[3] = Insulin nasal in sheep, plasma glucose and plasma insulin
[4] = rats, nasal polyacrylic acid gel, versus normal formulation; cited from earlier work
[5] = intranasal with Laureth 9; cited from earlier work
[6] = Comparative studies: nasal insulin with various materials with and without starch microspheres; format: in vivo; conditions: sheep; for decrease in plasma glucose and increase in absorption versus starch microspheres alone: nasal powder
Description: A series of studies were carried out to determine the effect on the administration of insulin of various enhancers with and without microsphere particles. All of the studies were carried out in sheep and the insulin was administered intranasally either in solution or powder formulation. The preparation of the various insulin formulations and the method of administration and result taking were all as described earlier.

[7] = dogs, powder with cellulosic material and Carbopol 934; cited from earlier work
[8] = Bioavailability enhancement by microspheres plus bioavailability increasing material (general statement); conditions: microspheres with lysophosphatidylcholine
Description: The material selected for these studies has been lysophosphatidylcholine (described above).

[9] = intranasal simple solution, 2 IU/kg
[10] = intranasal solution with 0.2% LPC
[11] = intranasal starch microspheres and LPC
[12] = intranasal starch microspheres and LPC, 2 IU/kg

insulin: Zn-crystallized highly purified semisynthetic human insulin (sheep studies)
absorption efficiency across the nasal membrane [1]: about 1.2 % of the administered dose | effect of increasing amounts of bile salt on absorption [2]: striking effect | shape of plasma glucose profile versus intravenous insulin ([3]; intranasal insulin-microsphere-enhancer system): very similar to the one obtained for the intravenous insulin | amount of insulin absorbed [3, 9]: very low | effect on plasma glucose level [3, 9]: does not have a significant effect | amount of insulin appearing in the circulation [3, 10]: increases the amount of insulin appearing in the circulation | plasma glucose level [3, 10]: somewhat lower | decline of insulin level after peak [3, 11]: decreases rapidly as for intravenous insulin | relative bioavailability versus subcutaneous injection [3, 11]: about 25% | time of peak insulin level [3, 11]: 15 to 20 min | increase in AUC of plasma insulin versus simple nasal solution [3, 12]: 693% | increase in peak insulin level versus simple nasal solution [3, 12]: 1040% | plasma glucose levels [4]: significant decrease | appearance of peak level [5]: rapidly | dose response [5]: clear dose response relationship | shape of absorption profile ([6]; nasal): sharp peak | plasma glucose level versus insulin in GDC solution ([6]; nasal 2 IU/kg, GDC 0.08 mg/kg and starch microspheres 2.5 mg/kg): decreased considerably more | absorption (plasma insulin levels) ([6]; nasal 2 IU/kg, GDC and starch microspheres): enhanced absorption | decrease in plasma glucose and increase in absorption versus starch microspheres alone ([6]; starch microspheres with N-acetyl cysteine): considerably increased | decrease in plasma glucose and increase in absorption versus starch microspheres alone ([6]; starch microspheres with aprotinin): considerably increased | effect on plasma glucose levels versus LPC-M alone in solution ([6]; nasal, LPC-M and starch microspheres): considerably increased effect | absorption after nasal application [7]: increase the absorption | enhancement concept, outcome [8]: successful
